± gives the standard deviation of the averaged measurements.
System: ATP
Assay: switch fluorescence ratio, 500 uM ATP over buffer (Cy3 cluster intensity, sum of 5 cycles each) (fold (ratio)); higher = stronger signal-on switching upon ATP binding; sequences stand for … in TCGTCGGCAGCGTCAGATGTGTATAAGAGACAGTTTTTTTTTTTTTTTTTTTTTTTTT…TC
Details: aptamer strand: ATP DNA aptamer (quencher-CACCTGGGGGAGTATTGCGGAGGAAGG + anchor), 100 nM annealed; ATP concentration: 500 uM
How it was run: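 For every switch-domain sequence, the fluorescence ratio is the mean of per-cluster values, each being summed target-cycle Cy3 intensity over summed buffer-cycle Cy3 intensity. Clusters outside 100-1000 RFU were excluded. On a modified Illumina MiSeq flow-cell, the Cy3-labelled switching-strand clusters were annealed to 100 nM quencher-labelled ATP aptamer, imaged in selection buffer and then after 15 min with 500 uM ATP at 22 °C. Five such cycles were run, with NaOH stripping and re-annealing between them.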
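Further: ATP exposure 15 min at 22 °C before imaging.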

| Sequence | switch fluorescence ratio |
| --- | --- |
| TCCTTTTAAC | 1.25 ± 0.085 |
| AAAGGGAGGT | 1.03 ± 0.041 |
| CCGGGGGGCT | 1.09 ± 0.043 |
| ATTTGTATGT | 0.963 ± 0.013 |
| AGGAGTGGAG | 0.996 ± 0.013 |
| AGCCTGGTGG | 1.05 ± 0.013 |
| GAGCTTGTGG | 1.03 ± 0.015 |
| GAGTTTCGTG | 0.965 ± 0.01 |
| TTGCGTGATG | 1.02 ± 0.029 |
| TTTTGAGATG | 0.999 ± 0.024 |
| TTTGTAAGGC | 1.08 ± 0.13 |
| AGTCAAAGGA | 1.012 ± 0.0051 |
| TTAGGTCTTC | 1.02 ± 0.014 |
| GTTAGATGTT | 1 ± 0.011 |
| ATTGTGTTAG | 1.03 ± 0.055 |
| GATTTGAGGG | 0.973 ± 0.032 |
| TTAGCCCATG | 1.03 ± 0.029 |
| CTAGTTCTTA | 1.05 ± 0.065 |
| GTTAGAGTCA | 1.01 ± 0.013 |
| CTTGACAAGG | 0.982 ± 0.014 |
| GACAAAAAAA | 1.06 ± 0.012 |
| CGAGCTTATA | 1.38 ± 0.032 |

| Sequence | switch fluorescence ratio |
| --- | --- |
| TGGTTGTTT | 0.9856 ± 0.0018 |
| CAAAAAGATT | 1.01 ± 0.017 |
| TTAGCTTGGT | 0.999 ± 0.043 |
| GGATGTGGGA | 0.981 ± 0.017 |
| GGGCTAGTTA | 0.9948 ± 0.0073 |
| GATGTTATCG | 0.99 ± 0.015 |
| TGGGGCGAAA | 0.997 ± 0.089 |
| AATGTGGACG | 0.988 ± 0.04 |
| AGGGGGTTTG | 1.01 ± 0.033 |
| GAAGCATAAT | 1.27 ± 0.12 |
| ATGCGGGGGC | 1.045 ± 0.0046 |
| TGTGGTTGGG | 0.989 ± 0.027 |
| GGCGGAGGGG | 0.998 ± 0.024 |
| GAGTGCCGGT | 1.02 ± 0.023 |
| GCCGGTTTTG | 1.01 ± 0.017 |
| AGCTGCAGTG | 1.02 ± 0.019 |
| CGTAGACGAG | 1.03 ± 0.016 |
| CATGCCAGTG | 1.049 ± 0.0013 |
| GGAGGGTGAG | 0.984 ± 0.014 |
| ATCATTTGTT | 0.991 ± 0.017 |
| TGGGAACTTG | 0.991 ± 0.028 |
